Results reported in the Immune Epitope Database (IEDB).

The sequences below were run against HLA-B*53:01 (assay: IEDB peptide-MHC binding, purified MHC/competitive/radioactivity; ≥ and ≤ were set here for values at or beyond the usual limits of such assays). Settings: source organism: Bordetella pertussis.

Sequence | IC50
ASPRRARRA | 69.9 µM
GAASSYFEY | 47.3 µM
MPIDRKTLC | 1.63 µM
LATYQSEYL | ≥ 78.2 µM
TAGATPFDI | 4.91 µM
PKPKPKAER | ≥ 78.2 µM
LAANGNGQW | 1.67 µM

The sequences below were run against HLA-B*35:01 in the same assay as above. Settings: source organism: Bordetella pertussis.

Sequence | IC50
GAASSYFEY | 2.67 µM
NALAWALML | 6.31 µM
EPASANTLL | 69.9 µM

The sequences below were run against HLA-A*02:01 in the same assay as above. Settings: source organism: Bordetella pertussis.

Sequence | IC50
YVLVKTNMV | 3.96 µM

The sequences below were run against HLA-B*57:01 in the same assay as above. Settings: source organism: Bordetella pertussis.

Sequence | IC50
KSLPGGKLP | 5.78 µM
ASVSNPGTF | 40.8 µM

The sequences below were run against HLA-B*07:02 in the same assay as above. Settings: source organism: Bordetella pertussis.

Sequence | IC50
LKRPGSSPM | 3.84 µM
EPASANTLL | 15 µM

What follows are sequences tested against HLA-B*44:03 in the same assay as above. Settings: source organism: Bordetella pertussis.

Sequence | IC50
FEPGITTNY | 42.8 µM
GAASSYFEY | 44 µM
AAQATVVQR | 23.3 µM
AEVTDTSPS | 41.2 µM
RELSAAANA | 21.1 µM
YEYIWGLYQ | 8.91 µM
